Here are results for 11 substances from patent US12357965B2, “Supramolecular filamentous assemblies for protein purification” (The Johns Hopkins University, priority 2017, dated 2025).

Several values for one entry are separate records, joined by “and”; a condition that tells them apart may be missing. Equal values may be shown once. Where no end group is shown, it is not given here. The star is where a group is joined. Palmitoyl = CCCCCCCCCCCCCCCC(=O)*; Octanoyl = CCCCCCCC(=O)*; C12H21O = C12 acyl

A short description of data set [1]: Circular dichroism (CD) spectroscopy of peptide secondary structure. It counts as physicochemical. To be noted: 100 μM in water at pH 7.4.
The nature of data set [2]: Critical micelle concentration (CMC) measurement with Nile Red. The class given is physicochemical. Conditions: deionized water. The protocol: CMC Measurement. […] The stock solution of Nile Red was initially prepared by dissolving the dye in acetone at 50 μM. 10 μL stock solution was loaded into several centrifuge tubes, where the solvent evaporates under room temperature to yield the dry mass of Nile Red. Various concentrations of the peptide solutions were prepared in deionized water, and then identical volume was added into the centrifuge tubes containing dry Nile Red and aged overnight. Fluorescent spectra of Nile Red were then monitored by a Fluorolog fluorometer (Jobin Yvon, Edison, NJ) with fixed excitation wavelength at 560 nm; emission spectra were monitored 580-720 nm. The CMC of IAs is determined by a blue-shift of the emission maximum, whereas this transition occurs as the incubated peptides exceed their CMC values.
To deeply understand the differences between single-chain and double-chain alkylated IAs with fragmented antibody binding peptides, further studies on CMC and secondary structures were conducted. The critical micelle concentration (CMC) values for various IAs were measured using Nile Red, a lipophilic dye that fluoresces depending on solvent polarity. Intensive fluorescence upon exposure to hydrophobic environments can be strongly quenched and red-shifted in aqueous media. When incubated with IAs at different concentrations in aqueous solution, Nile Red prefers to partition into the hydrophobic core offered by the self-assembled nanostructures and the CMC of IAs was determined when a blue-shift of the emission maximum occurred. […] Similarly, CMC values for C16-Helix2, Helix1-2C8, and 2C8-Helix2 can be obtained from FIG. 8B-8D.

Data set [3] is described as follows: TEM imaging of self-assembled nanostructures (diameter). It counts as physicochemical. To be noted: water; for diameter of nanofibers / nanobelts (TEM): pH 7.4, aged overnight; for diameter of smallest filaments (TEM): pH 7.4, double-chain alkylated IAs. As to the method:
Self-Assembly of Immuno-Amphiphiles and TEM Imaging Immuno-amphiphiles with 1 mM concentration were pretreated with HFIP and then dissolved in 1×PBS or deionized water and aged overnight at room temperature; 10 μL of 10 fold diluted sample was spotted on a carbon film copper grid with 400 square mesh (from EMS: Electron Microscopy Sciences) and the excess was removed with filter paper to leave a thin film of sample on the grid. After letting the sample dry for 5 minutes, 10 μL of 2% uranyl acetate was added to sample grid, and the excess was removed after 30 seconds. All samples were dried for at least 3 hours before TEM imaging.

In data set [4] the target is IgG (Homo sapiens, UniProt P01857). As to the kind of experiment: IgG binding and precipitation by co-assembled immunofibers with 1 M ammonium sulfate (ProA column quantification). To be noted: mixed with IgG, 10:1 binding molecule to IgG. The protocol:
To investigate the IgG binding and precipitation ability with the new immunofibers binding system, 100 μl of desired immunofibers solution was incubated with IgG (with a 10:1 molar ratio of C12-VVKKGG(SEQ ID NO: 9) -Z33 and IgG) for half an hour followed by adding ammonium sulfate to a final concentration of 1 M to trigger the precipitation of the immunofibers and IgG. […] After centrifuging down the precipitates and analyzing the IgG concentration in the supernatant, about 30% IgG were precipitated out from the solution. IgG concentration was quantified with a ProA column (TSKgel® Protein A-5PW, 20 μm, 35×4.6 mm) monitored at 280 nm.
To increase the IgG binding efficiency and optimal precipitation condition in the co-assembled immunofibers binding system, several factors will continue to be optimized including the ratio of binding molecules to spacer molecules, the ratio of binding molecules to IgG, salt concentration, binding and salting time, and so on. The molar ratio of C12-VVEE (SEQ ID NO: 10) and C12-VVKKGG(SEQ ID NO: 9) -Z33 and the molar ratio of C12-VVKKGG(SEQ ID NO: 9) -Z33 were firstly studied and preliminary results were shown in FIG. 21. At a 10:2 molar ratio of C12VVKKGG(SEQ ID NO: 9) -Z33 to IgG and 1 M ammonium sulfate, 5 molar ratios of C12-VVEE (SEQ ID NO: 10) to C12-VVKKGG(SEQ ID NO: 9) -Z33 (5:1, 10:1, 25:1, 50:1, 100:1) were tested. […]

A short description of data set [5]: Thioflavin T (ThT) spectroscopic assay for β-sheet. Conditions: 100 μM in deionized water. The class given is physicochemical. As to the method: Thioflavin T (ThT) Spectroscopic Assay. A ThT stock solution was prepared in deionized water at 50 μM. […] The fluorescence intensity was then measured by a Fluorolog fluorometer (Jobin Yvon, Edison, NJ) with excitation at 440 nm (slit width 5 nm) and emission at 482 nm (slit width 10 nm).
To further confirm the component of secondary structures in the self-assembled IAs, a fluorescent dye Thioflavin-T (ThT) with large enhancement of its fluorescence emission upon binding to β-sheet surfaces was used to examine the existence of β-sheet secondary structures in Helix1-based IAs.

Chain of IgG (P01857 1-330 isoform P01857-1): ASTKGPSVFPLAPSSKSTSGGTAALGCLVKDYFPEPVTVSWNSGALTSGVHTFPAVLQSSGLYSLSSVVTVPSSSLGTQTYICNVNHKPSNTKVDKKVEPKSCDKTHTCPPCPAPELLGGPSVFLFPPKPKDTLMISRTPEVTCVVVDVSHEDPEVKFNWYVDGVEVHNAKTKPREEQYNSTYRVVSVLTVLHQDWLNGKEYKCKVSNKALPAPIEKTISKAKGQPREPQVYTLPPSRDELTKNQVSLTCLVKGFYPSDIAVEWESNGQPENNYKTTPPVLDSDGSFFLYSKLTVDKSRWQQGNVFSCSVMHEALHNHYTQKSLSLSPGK

As for “(C8H15O)2-KPNLNEEQRNAKIKSIRDD (SEQ ID NO: 7) (not fully specified (residue 1, N-terminus); printed as (C8H15O)2-KPNLNEEQRNAKIKSIRDD; also: two octanoyl chains (C8H15O)2 at N-terminal Lys, places not given here) [2C8-Helix2]”, the “Main Secondary Structure (100 μM)” value in data set [1] is on record as “α-helix”. This substance also had a CMC in data set [2] of 5 to 10 µM. In data set [3], the “diameter of nanofibers / nanobelts (TEM)” value was determined as 22.9±1.5 nm and the “diameter of smallest filaments (TEM)” value is given as 9.3±1.3 nm.
As to “C8H15O- PNLNEEQRNAKIKSIRDD (SEQ ID NO: 5) (Octanoyl-PNLNEEQRNAKIKSIRDD) [C8-Helix2]”, the “Main Secondary Structure (100 μM)” value in data set [1] is “Random coil”. The CMC in data set [2] is above 100 µM.
For “C12-VVKKGG (SEQ ID NO: 9) -Z33: binding molecule: C12 alkyl tail at N-terminus, VVKKGG spacer between the carbon chain and binding peptide Z33”, the “precipitation after addition of ammonium sulfate (observation)” value in data set [4] is listed as “no precipitation was observed”.
For the substance “C12H21O- PNLNEEQRNAKIKSIRDD (SEQ ID NO: 5) (C12H21O-PNLNEEQRNAKIKSIRDD) [C12-Helix2]”, in data set [1], the “Main Secondary Structure (100 μM)” value is recorded as “α-helix”. In data set [2], this substance came in with a CMC of 2 to 5 µM.
Regarding “C16H31O- PNLNEEQRNAKIKSIRDD (SEQ ID NO: 5) (Palmitoyl-PNLNEEQRNAKIKSIRDD) [C16-Helix2]”, in data set [1], the “Main Secondary Structure (100 μM)” value was “β-sheet”. Moreover, the CMC in data set [2] was in the range of 0.5 to 1 µM. In data set [3], the “diameter of nanofibers / nanobelts (TEM)” value is given as 12.4±1.7 nm.
As to FNMQQQRRFYEALHD [Helix1], the “Main Secondary Structure (100 μM)” value in data set [1] is reported as “random coil”.
“FNMQQQRRFYEALHDK (SEQ ID NO: 3)-C8H15O (not fully specified (residue 16); also: C-terminal C8 acyl (C8H15O), attachment not given here) [Helix1-C8]”: the “Main Secondary Structure (100 μM)” value in data set [1] is recorded as “Random coil”. Further, the CMC in data set [2] is above 100 µM.
“FNMQQQRRFYEALHDK(SEQ ID NO: 3)-C12H21O (FNMQQQRRFYEALHDK(C12H21O); not fully specified) [Helix1-C12]”: the “Main Secondary Structure (100 μM)” value in data set [1] is reported as “β-sheet”. This substance also displayed a CMC in data set [2] of 5 to 10 µM. Moreover, the “diameter of nanofibers / nanobelts (TEM)” value in data set [3] was 12.2±1.4 nm and 12.9±0.9 nm.
As for “FNMQQQRRFYEALHDK(SEQ ID NO: 3)-C16H31O (not fully specified (residue 16); also: C-terminal C16 acyl (C16H31O), attachment not given here) [Helix1-C16]”, the “Main Secondary Structure (100 μM)” value in data set [1] is “β-sheet”. In data set [2], this substance gave a CMC of 0.5 to 1 µM. In addition, in data set [5], the “ThT fluorescence emission at 482 nm compared with pure ThT solution” value is “dramatic increase of fluorescence”. Further, the “diameter of nanofibers / nanobelts (TEM)” value in data set [3] is 9.6±1.3 nm and 9.5±1.2 nm.
For “FNMQQQRRFYEALHDKK(SEQ ID NO: 4)-(C8H15O)2 (not fully specified (residues 16, 17); also: two C-terminal octanoyl chains (C8H15O)2, places not given here) [Helix1-2C8]”, the “Main Secondary Structure (100 μM)” value in data set [1] was “α-helix”. The CMC in data set [2] was 10 to 20 µM. In addition, in data set [3], the “diameter of nanofibers / nanobelts (TEM)” value is listed as 10-70 nm and the “diameter of smallest filaments (TEM)” value was determined as 11.0±1.4 nm.
Regarding PNLNEEQRNAKIKSIRDD [Helix2], the “Main Secondary Structure (100 μM)” value in data set [1] is recorded as “random coil”.
